In patent publication US20040136982A1:

How the values were obtained:
FLAG-sBST2-GST (human) [1] = target: FLAG-sBST2-GST (human) (UniProt Q10589); test: ELISA, plate coated with FLAG-sBST2-GST, control IgG1 (κ)
FLAG-sBST2-GST (human) [2] = target: FLAG-sBST2-GST (human) (UniProt Q10589); test: ELISA, plate coated with FLAG-sBST2-GST, control IgG4 (κ)

FLAG-sBST2-GST (human), sequence (Q10589 other isoform, or with tags, fused parts or gaps): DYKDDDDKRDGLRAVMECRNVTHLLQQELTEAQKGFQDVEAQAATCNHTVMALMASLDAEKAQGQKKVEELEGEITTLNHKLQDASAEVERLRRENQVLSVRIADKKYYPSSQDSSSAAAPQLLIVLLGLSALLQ

A450 nm/A570 nm (FLAG-sBST2-GST (human) [1]) [absorbance] | A450 nm/A570 nm (FLAG-sBST2-GST (human) [2]) [absorbance] | Substance
0.014 |  | Control IgG1 (κ) (antibody)
 | 0.013 | Control IgG4 (κ) (antibody)
